In paper PMC7954794, “Protein context shapes the specificity of SH3 domain-mediated interactions in vivo” (Nature Communications, 2021):

B1: YBL007C_1 (protein, UniProt P32790 1-1244, looked up)
Actin cytoskeleton-regulatory …: MTVFLGIYRAVYAYEPQTPEELAIQEDDLLYLLQKSDIDDWWTVKKRVIGSDSEEPVGLVPSTYIEEAPVLKKVRAIYDYEQVQNADEELTFHENDVFDVFDDKDADWLLVKSTVSNEFGFIPGNYVEPENGSTSKQEQAPAAAEAPAATPAAAPASAAVLPTNFLPPPQHNDRARMMQSKEDQAPDEDEEGPPPAMPARPTATTETTDATAAAVRSRTRLSYSDNDNDDEEDDYYYNSNSNNVGNHEYNTEYHSWNVTEIEGRKKKKAKLSIGNNKINFIPQKGTPHEWSIDKLVSYDNEKKHMFLEFVDPYRSLELHTGNTTTCEEIMNIIGEYKGASRDPGLREVEMASKSKKRGIVQYDFMAESQDELTIKSGDKVYILDDKKSKDWWMCQLVDSGKSGLVPAQFIEPVRDKKHTESTASGIIKSIKKNFTKSPSRSRSRSRSKSNANASWKDDELQNDVVGSAAGKRSRKSSLSSHKKNSSATKDFPNPKKSRLWVDRSGTFKVDAEFIGCAKGKIHLHKANGVKIAVAADKLSNEDLAYVEKITGFSLEKFKANDGSSSRGTDSRDSERERRRRLKEQEEKERDRRLKERELYELKKARELLDEERSRLQEKELPPIKPPRPTSTTSVPNTTSVPPAESSNNNNSSNKYDWFEFFLNCGVDVSNCQRYTINFDREQLTEDMMPDINNSMLRTLGLREGDIVRVMKHLDKKFGRENIASIPTNATGNMFSQPDGSLNVATSPETSLPQQLLPQTTSPAQTAPSTSAETDDAWTVKPASKSESNLLSKKSEFTGSMQDLLDLQPLEPKKAAASTPEPNLKDLEPVKTGGTTVPAAPVSSAPVSSAPAPLDPFKTGGNNILPLSTGFVMMPMITGGDMLPMQRTGGFVVPQTTFGMQSQVTGGILPVQKTGNGLIPISNTGGAMMPQTTFGAAATVLPLQKTGGGLIPIATTGGAQFPQTSFNVQGQQQLPTGSILPVQKTANGLISANTGVSMPTVQRTGGTMIPQTSFGVSQQLTGGAMMTQPQNTGSAMMPQTSFNAVPQITGGAMMPQTSFNALPQVTGGAMMPLQRTGGALNTFNTGGAMIPQTSFSSQAQNTGGFRPQSQFGLTLQKTGGIAPLNQNQFTGGAMNTLSTGGVLQQQQPQTMNTFNTGGVMQELQMMTTFNTGGAMQQPQMMNTFNTDGIMQQPQMMNTFNTGGAMQQPQQQALQNQPTGFGFGNGPQQSRQANIFNATASNPFGF
B2: YFL010C_1 (protein, UniProt P43582 1-211, looked up)
WW domain-containing protein …: MAQSKSNPPQVPSGWKAVFDDEYQTWYYVDLSTNSSQWEPPRGTTWPRPKGPPPGVNNEKSSRQQADQAPPPYSSQSTPQVQAGAQAQQPRYYQPQQPQYPQYPQQQRYYPQQAPMPAAAPQQAYYGTAPSTSKGSGHGGAMMGGLLGVGAGLLGGAMLEHAFDDHNYDGPDTVVVENNYYGDDAGGSDGGFDDAGGFDGGFDDGFDGSDF
B3: YFR024C-A_1 (protein, UniProt P43603 1-459, looked up)
LAS seventeen-binding protein …: MGINNPIPRSLKSETKKAAKILASFVKPNQVFGADQVIPPDVLKRAKGLAIITILKAGFLFSGRAGSGVIVARLKDGTWSAPSAIAMAGAGAGGMVGIELTDFVFILNTQDAVKSFSEFGTITLGGNVSVSAGPLGRSAEAAASASAGGVAAVFAYSKSKGLFAGVSVEGSAIIERREANRKFYGDNCTAKMILSGRIRPPPAVDPLFRVLESRAFNYRPSNGGRGSFDDDEDDYYDDDDYYNDIPSSFSSTDASSTRPNTRSTRRRAQSGSRYTFDDDDDDDDYGTGYSRNSRLAPTNSGGSGGKLDDPSGASSYYASHRRSGTAQSRARSSRNRWADDEYDDYDDDYESGYRRGNGRDRTKDREVDDLSNRFSKSRISSASTPQTSQGRFTAPTSPSTSSPKAVALYSFAGEESGDLPFRKGDVITILKKSDSQNDWWTGRVNGREGIFPANYVELV
B4: YGR229C_1 (protein, UniProt P32566 1-505, looked up)
Cell wall assembly regulator …: MDLFKRKVKEWVYSLSTDDHYAEYNPDETPTFNMGKRLNSNNGQVNPSQMHLNSVDEEMSMGFQNGVPSNEDINIDEFTSTESNDGVSETLLAWRHIDFWTSEHNPDLNATLSDPCTQNDITHAEEDLEVSFPNPVKASFKIHDGQEDLESMTGTSGLFYGFQLMTLDQVVAMTQAWRNVAKNLNKRSQQGLSHVTSTGSSSSMERLNGNKFKLPNIPDQKSIPPNAVQPVYAHPAWIPLITDNAGNHIGVDLAPGPNGKYAQIITFGRDFDTKFVIAENWGEFLLSFANDLEAGNWYLVDDNDDYFSGDGELVFRDKKSNGPIQDYFEVLKRRTWIKYQENLRSQQQKSQPDTSLQEQKYVPASQKKVAAEQPSTLNAESIKGEDSGSADVQSVQDHESVKIVKTEPSEAETTTVNTESLGQAEHEIKADNVDIKQESERKEDEKQPKVEEKEHVENEHVTESAKKDDDVNKQTEEMNKKEENEIRSDDAKVEEAREEFENIAL
B5: YGR281W_1 (protein, UniProt P53049 1-1477, looked up)
Oligomycin resistance …: MTITVGDAVSETELENKSQNVVLSPKASASSDISTDVDKDTSSSWDDKSLLPTGEYIVDRNKPQTYLNSDDIEKVTESDIFPQKRLFSFLHSKKIPEVPQTDDERKIYPLFHTNIISNMFFWWVLPILRVGYKRTIQPNDLFKMDPRMSIETLYDDFEKNMIYYFEKTRKKYRKRHPEATEEEVMENAKLPKHTVLRALLFTFKKQYFMSIVFAILANCTSGFNPMITKRLIEFVEEKAIFHSMHVNKGIGYAIGACLMMFVNGLTFNHFFHTSQLTGVQAKSILTKAAMKKMFNASNYARHCFPNGKVTSFVTTDLARIEFALSFQPFLAGFPAILAICIVLLIVNLGPIALVGIGIFFGGFFISLFAFKLILGFRIAANIFTDARVTMMREVLNNIKMIKYYTWEDAYEKNIQDIRTKEISKVRKMQLSRNFLIAMAMSLPSIASLVTFLAMYKVNKGGRQPGNIFASLSLFQVLSLQMFFLPIAIGTGIDMIIGLGRLQSLLEAPEDDPNQMIEMKPSPGFDPKLALKMTHCSFEWEDYELNDAIEEAKGEAKDEGKKNKKKRKDTWGKPSASTNKAKRLDNMLKDRDGPEDLEKTSFRGFKDLNFDIKKGEFIMITGPIGTGKSSLLNAMAGSMRKTDGKVEVNGDLLMCGYPWIQNASVRDNIIFGSPFNKEKYDEVVRVCSLKADLDILPAGDMTEIGERGITLSGGQKARINLARSVYKKKDIYLFDDVLSAVDSRVGKHIMDECLTGMLANKTRILATHQLSLIERASRVIVLGTDGQVDIGTVDELKARNQTLINLLQFSSQNSEKEDEEQEAVVAGELGQLKYESEVKELTELKKKATEMSQTANSGKIVADGHTSSKEERAVNSISLKIYREYIKAAVGKWGFIALPLYAILVVGTTFCSLFSSVWLSYWTENKFKNRPPSFYMGLYSFFVFAAFIFMNGQFTILCAMGIMASKWLNLRAVKRILHTPMSYIDTTPLGRILNRFTKDTDSLDNELTESLRLMTSQFANIVGVCVMCIVYLPWFAIAIPFLLVIFVLIADHYQSSGREIKRLEAVQRSFVYNNLNEVLGGMDTIKAYRSQERFLAKSDFLINKMNEAGYLVVVLQRWVGIFLDMVAIAFALIITLLCVTRAFPISAASVGVLLTYVLQLPGLLNTILRAMTQTENDMNSAERLVTYATELPLEASYRKPEMTPPESWPSMGEIIFENVDFAYRPGLPIVLKNLNLNIKSGEKIGICGRTGAGKSTIMSALYRLNELTAGKILIDNVDISQLGLFDLRRKLAIIPQDPVLFRGTIRKNLDPFNERTDDELWDALVRGGAIAKDDLPEVKLQKPDENGTHGKMHKFHLDQAVEEEGSNFSLGERQLLALTRALVRQSKILILDEATSSVDYETDGKIQTRIVEEFGDCTILCIAHRLKTIVNYDRILVLEKGEVAEFDTPWTLFSQEDSIFRSMCSRSGIVENDFENRS
B6: YHR114W_1 (protein, UniProt P38822 1-633, looked up)
Protein BZZ1: MSADLSIGNEIKDSFKETHKWVQNNLKWLKDIEQFYRERAKLEKDYSERLSRLSAEYFNKKSSTSVPISVGDTPTTTPGSIEAAGVVAWNEILSQTDMISKDHDQLSTDFENHVANQLSGLFTKLDMTLSKINGFNNDMVNKKDNIYHELEKAKKDYDEACSTMEMARNRYTKASNDRNKKKLDEKEMEMNKCKNEYLIKINQANRTKDKYYFQDVPEVLDLLQDVNEAKTLFLNDLWLKAASVENDLGANVSKRLQAANSVVKQNKPSLNTAIFIKHNLKNWKEPQDFVYKPSPVWHDDEKFAVPSSLEVEDLRIKLAKAENDYNSLQDKTQNELSKLSTLNKIKHEMKTNEDNINATKFYDTLKEYLNVVSPFTSHETLKLQAEVQIESIQNNVPEEYDLSTDNIDLSKTKKKSGIFSKFKHNILNVDSKPSSGGSTGNGNGGPLHITSLFNTSRRTRLGSAPNNAGEDSDNNSIRTTSTNNTKKTTQNSSDDGKNKVLYAYVQKDDDEITITPGDKISLVARDTGSGWTKINNDTTGETGLVPTTYIRISSAATVKANDRGPAPEVPPPRRSTLPVRTMEAIYAYEAQGDDEISIDPGDIITVIRGDDGSGWTYGECDGLKGLFPTSYCK
B7: YKL117W_1 (protein, UniProt P28707 2-216, looked up)
Co-chaperone protein SBA1: SDKVINPQVAWAQRSSTTDPERNYVLITVSIADCDAPELTIKPSYIELKAQSKPHVGDENVHHYQLHIDLYKEIIPEKTMHKVANGQHYFLKLYKKDLESEYWPRLTKEKVKYPYIKTDFDKWVDEDEQDEVEAEGNDAAQGMDFSQMMGGAGGAGGAGGMDFSQMMGGAGGAGSPDMAQLQQLLAQSGGNLDMGDFKENDEEDEEEEIEPEVKA

Tested on: PPIs identified as affected by the SH3 domain deletions
Experiment: Liquid DHFR-PCA low-throughput validation of PPIs affected by SH3 deletion (Fig. S1D-E)
Assay type: cell-based, Saccharomyces cerevisiae
Details: label = prey, liquid DHFR-PCA, prey _1 = lost, _2 = gained in screen
Method: Liquid DHFR-PCA low-throughput experiments were performed to validate the PPIs identified as affected by the SH3 domain deletions in the high-throughput solid DHFR-PCA screen (256 PPIs weaker or lost and 116 PPIs stronger or gained following domain deletions). Mating and the diploid selection were performed as described for the large-scale experiment, with the exception that the plates were in 384 formats. Following the second diploid selection, diploid cells were inoculated in a 96 v-shaped well plate using a robotically manipulated 96 pin tool in a synthetic complete medium with MSG at pH 6.0 with NAT and HPH. After 48 h of growth, optical density (OD) was read using a TECAN Infinite F200 Pro, and dilutions to 1 OD in sterile nanopure water were prepared. Cells were then diluted to 0.1 OD by combining 25 µl of cell suspension at OD = 1 and 225 µl of PCA selection media without agar in a 96-wells plate. Plates were incubated at 30 °C in a TECAN Infinite M Nano and OD was monitored each 15 min for 72 h.

Molecule	Ratio (Deletedscore / WTscore) (bait BBC1)	Ratio (Deletedscore / WTscore) (bait MYO3)	Ratio (Deletedscore / WTscore) (bait MYO5)	also measured
B1	0.5353	0.6734	0.8649	Ratio (Deletedscore / WTscore) (bait LSB1): 0.9074; Ratio (Deletedscore / WTscore) (bait PIN3): 0.824
B2	0.6877			
B3	0.507	0.7743	0.8345	Ratio (Deletedscore / WTscore) (bait BZZ1-1): 0.736; Ratio (Deletedscore / WTscore) (bait HOF1): 1.194; Ratio (Deletedscore / WTscore) (bait RVS167): 0.8585
B4	0.6664			Ratio (Deletedscore / WTscore) (bait BEM1-1): 0.1513
B5	0.5928	0.4945	0.6948	Ratio (Deletedscore / WTscore) (bait BEM1-2): 0.6055
B6	0.6315	0.5608	0.7759	Ratio (Deletedscore / WTscore) (bait LSB3): 0.7048; Ratio (Deletedscore / WTscore) (bait RVS167): 0.6256
B7	0.6627			
